Experimental data reported in EP1262190A1 (Takeda Chemical Industries, Ltd., dated 2001).
Where no end group is shown, it is not given here.

Assays:
[1] = target: human 0T7T022 receptor (human); assay: cell-based or functional assay
[2] = target: rat cerebellum-derived novel G protein-coupled receptor protein r0T7T022L (rat); assay: cell-based or functional assay

human 0T7T022 receptor (human), sequence (Q9GZQ6 whole entry): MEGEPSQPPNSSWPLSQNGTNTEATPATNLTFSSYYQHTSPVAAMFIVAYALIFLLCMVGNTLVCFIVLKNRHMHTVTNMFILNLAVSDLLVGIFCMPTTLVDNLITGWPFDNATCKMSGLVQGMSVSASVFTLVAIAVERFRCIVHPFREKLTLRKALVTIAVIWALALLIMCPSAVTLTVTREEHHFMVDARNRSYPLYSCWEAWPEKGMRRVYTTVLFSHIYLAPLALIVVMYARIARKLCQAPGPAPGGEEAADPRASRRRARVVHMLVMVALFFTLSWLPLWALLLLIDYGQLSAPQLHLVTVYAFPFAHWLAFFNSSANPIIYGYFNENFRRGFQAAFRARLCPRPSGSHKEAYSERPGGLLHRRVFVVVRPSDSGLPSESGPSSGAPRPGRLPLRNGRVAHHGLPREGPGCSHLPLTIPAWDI

| ED50, inhibition of the cAMP level increased by forskolin [1] | IC50 of inhibiting the cAMP production (forskolin-stimulated) [2] | Binder |
| --- | --- | --- |
| 140 nM | – | NPFF [NPFF (peptide shown by Asn-Pro-Phe-Phe)] |
| 36 nM | – | LPLRF-NH2 [LPLRFamide (peptide shown by Leu-Pro-Leu-Arg-Phe-NH2)] |
| 4.5 nM | 0.5 nM | MPHSFANLPLRF-NH2 [peptide MPHSFANLPLRFamide (Met-Pro-His-Ser-Phe-Ala-Asn-Leu-Pro-Leu-Arg-Phe-NH2)] |
| ≥ 1000 nM | – | PQRF-NH2 [PQRFamide (peptide shown by Pro-Gln-Arg-Phe-NH2)] |
